In this experiment the target is T1, Full-length human CTGF (human, UniProt P29279 27-349).
T1 construct: Corresponds to NCBI NP_001892.1 with the signal peptide omitted; purchased from R&D Systems; also called hCTGF full length; full length CTGF
T1 sequence: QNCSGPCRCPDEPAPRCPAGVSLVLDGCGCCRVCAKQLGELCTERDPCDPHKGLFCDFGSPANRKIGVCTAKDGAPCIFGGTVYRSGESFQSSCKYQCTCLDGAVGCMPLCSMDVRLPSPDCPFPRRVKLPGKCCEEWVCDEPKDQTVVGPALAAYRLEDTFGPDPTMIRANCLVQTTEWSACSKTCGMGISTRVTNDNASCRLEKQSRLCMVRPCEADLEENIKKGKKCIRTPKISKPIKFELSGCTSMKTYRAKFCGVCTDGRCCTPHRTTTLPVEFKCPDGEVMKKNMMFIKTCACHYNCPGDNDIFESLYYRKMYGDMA
Kind of experiment: SPR, full length CTGF.

Changes are numbered by the printed parent chain.

For orientation: Kd means a measure of binding affinity in units of concentration. A low value points to tighter binding.

B1: A33 (antibody, human IgG1, kappa, L234A L235A, V domains shown)
VH: EVQLVESGGGLVQPGGSLRLSCAASGFTFSDYYMAWVRQAPGKGLEWVANINYEGSRTDLLESLKSRFTISRDNAKNSVYLQMNSLRAEDTAVYYCARDTSRGSYFDVWGAGTTVTVSS
VL: VVMTQTPLSLSVSLGDQASISCKSSQSIVHYNENTYLEWYLQKPGQSPQLLIYKVSSRFSGVPDRFSGSGSGTDFTLKISRVEAEDLGVYYCFQGSHFPLTFGQGTKLEIKR
Take B1: the binding result is recorded as “no binding”.

B2: A35 (antibody, human IgG1, kappa, L234A L235A, V domains shown)
VH: B1 VH with E62A
VL: B1 VL
As for B2, the binding result is listed as “no binding”.

B3: A43 (antibody, human IgG1, kappa, L234A L235A, V domains shown)
VH: B1 VH with E62A
VL: B1 VL with F59A
For B3, the Kd was 0.15 nM.

B4: A36 (antibody, human IgG1, kappa, L234A L235A, V domains shown)
VH: B1 VH with E54Y, E62A
VL: B1 VL
Regarding B4, the binding result is “no binding”.

B5: A19 (antibody, human IgG1, kappa, L234A L235A, V domains shown)
VH: B1 VH with E62A
VL: B1 VL with E33G, N34K
Turning to B5, the Kd came to 0.17 nM.

B6: A1 (antibody, human IgG1, kappa, L234A L235A, V domains shown)
VH: B1 VH
VL: B1 VL with N34K
B6 registered a dissociation constant Kd of 0.29 nM. Against the preceding molecule, the Kd is about 1.7-fold higher.

B7: A5 (antibody, human IgG1, kappa, L234A L235A)
light: VVMTQTPLSLSVSLGDQASISCKSSQSIVHYNEKTYLEWYLQKPGQSPQLLIYKVSSRFSGVPDRFSGSGSGTDFTLKISRVEAEDLGVYYCFQGSHFPLTFGQGTKLEIKRTVAAPSVFIFPPSDEQLKSGTASVVCLLNNFYPREAKVQWKVDNALQSGNSQESVTEQDSKDSTYSLSSTLTLSKADYEKHKVYACEVTHQGLSSPVTKSFNRGEC
heavy: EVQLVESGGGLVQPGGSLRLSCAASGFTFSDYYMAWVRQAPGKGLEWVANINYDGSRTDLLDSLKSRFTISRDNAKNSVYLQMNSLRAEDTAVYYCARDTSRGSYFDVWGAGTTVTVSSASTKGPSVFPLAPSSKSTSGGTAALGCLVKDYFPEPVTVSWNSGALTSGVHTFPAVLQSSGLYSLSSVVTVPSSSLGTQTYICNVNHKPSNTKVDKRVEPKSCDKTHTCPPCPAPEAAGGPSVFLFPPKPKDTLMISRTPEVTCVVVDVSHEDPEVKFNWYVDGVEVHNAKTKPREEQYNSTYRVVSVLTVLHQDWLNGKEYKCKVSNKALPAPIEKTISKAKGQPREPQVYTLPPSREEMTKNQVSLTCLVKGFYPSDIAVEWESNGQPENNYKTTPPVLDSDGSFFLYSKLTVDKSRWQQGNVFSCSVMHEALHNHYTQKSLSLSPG
Take B7: the Kd is 0.32 nM.

B8: A7 (antibody, human IgG1, kappa, L234A L235A, V domains shown)
VH: B1 VH with E54D
VL: B1 VL with N34K
B8: the dissociation constant Kd came to 0.33 nM.

B9: A17 (antibody, human IgG1, kappa, L234A L235A, V domains shown)
VH: B1 VH
VL: B1 VL with E33G, N34K
The molecule B9 showed a Kd of 0.2 nM.

B10: A12 (antibody, human IgG1, kappa, L234A L235A)
light: B7 light with F59A
heavy: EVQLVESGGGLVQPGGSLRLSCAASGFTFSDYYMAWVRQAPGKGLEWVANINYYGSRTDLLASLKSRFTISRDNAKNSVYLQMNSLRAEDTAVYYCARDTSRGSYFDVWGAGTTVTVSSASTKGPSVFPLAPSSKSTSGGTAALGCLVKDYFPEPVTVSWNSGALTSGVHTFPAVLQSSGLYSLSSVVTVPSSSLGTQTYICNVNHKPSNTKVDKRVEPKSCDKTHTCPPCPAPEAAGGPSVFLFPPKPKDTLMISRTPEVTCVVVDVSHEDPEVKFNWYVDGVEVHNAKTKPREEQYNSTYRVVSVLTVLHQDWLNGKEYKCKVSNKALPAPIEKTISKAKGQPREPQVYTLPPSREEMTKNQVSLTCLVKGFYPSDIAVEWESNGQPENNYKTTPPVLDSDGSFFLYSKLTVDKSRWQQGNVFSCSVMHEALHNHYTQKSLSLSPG
The molecule B10 displayed a Kd of 0.17 nM. The Kd values of the last two molecules are within 1.5-fold of each other.

B11: A14 (antibody, human IgG1, kappa, L234A L235A)
light: B7 light with F59A
heavy: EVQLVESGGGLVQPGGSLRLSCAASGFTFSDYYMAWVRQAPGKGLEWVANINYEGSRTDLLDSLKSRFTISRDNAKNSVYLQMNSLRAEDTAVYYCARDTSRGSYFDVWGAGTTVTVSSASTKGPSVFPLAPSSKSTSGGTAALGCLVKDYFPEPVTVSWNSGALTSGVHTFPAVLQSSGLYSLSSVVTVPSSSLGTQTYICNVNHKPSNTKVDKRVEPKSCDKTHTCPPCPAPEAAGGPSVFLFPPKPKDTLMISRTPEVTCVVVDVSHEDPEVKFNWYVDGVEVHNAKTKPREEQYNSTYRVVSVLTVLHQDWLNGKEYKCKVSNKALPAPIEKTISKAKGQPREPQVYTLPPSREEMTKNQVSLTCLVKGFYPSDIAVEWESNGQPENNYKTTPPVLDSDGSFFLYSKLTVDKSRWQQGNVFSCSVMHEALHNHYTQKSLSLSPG
For B11, the Kd was 0.22 nM.

B12: A11 (antibody, human IgG1, kappa, L234A L235A)
light: B7 light with F59A
heavy: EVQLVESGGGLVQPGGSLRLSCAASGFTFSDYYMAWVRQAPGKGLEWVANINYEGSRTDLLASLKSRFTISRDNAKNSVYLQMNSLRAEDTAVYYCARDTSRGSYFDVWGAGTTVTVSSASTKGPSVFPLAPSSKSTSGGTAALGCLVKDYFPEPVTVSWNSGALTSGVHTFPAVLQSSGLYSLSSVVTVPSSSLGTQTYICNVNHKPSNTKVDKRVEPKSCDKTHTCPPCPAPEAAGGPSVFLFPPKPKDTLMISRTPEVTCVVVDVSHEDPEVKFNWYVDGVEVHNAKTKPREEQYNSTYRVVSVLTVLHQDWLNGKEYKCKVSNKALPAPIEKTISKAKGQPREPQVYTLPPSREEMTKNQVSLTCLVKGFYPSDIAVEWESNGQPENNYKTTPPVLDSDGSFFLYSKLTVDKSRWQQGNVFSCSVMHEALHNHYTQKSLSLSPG
Regarding B12, the Kd is 0.17 nM. The Kd values of the last two molecules are within 1.5-fold of each other.

B13: A42 (antibody, human IgG1, kappa, L234A L235A, V domains shown)
VH: B1 VH with E54Y
VL: B1 VL with F59A
In turn, B13 returned a Kd of 0.15 nM.

B14: A2 (antibody, human IgG1, kappa, L234A L235A, V domains shown)
VH: B1 VH with E54Y
VL: B1 VL with N34K
In turn, B14 registered a Kd of 0.25 nM.

B15: A20 (antibody, human IgG1, kappa, L234A L235A, V domains shown)
VH: B1 VH with E54Y, E62A
VL: B1 VL with E33G, N34K
B15 came in with a Kd of 0.18 nM.

B16: A4 (antibody, human IgG1, kappa, L234A L235A, V domains shown)
VH: B1 VH with E54Y, E62A
VL: B1 VL with N34K
As for B16, the Kd is 0.22 nM.

B17: A18 (antibody, human IgG1, kappa, L234A L235A, V domains shown)
VH: B1 VH with E54Y
VL: B1 VL with E33G, N34K
For the molecule B17, the Kd came to 0.19 nM.

B18: A23 (antibody, human IgG1, kappa, L234A L235A, V domains shown)
VH: B1 VH with E54D
VL: B1 VL with E33G, N34K
B18: the affinity, expressed as Kd, was 0.23 nM.

B19: A10 (antibody, human IgG1, kappa, L234A L235A)
light: B7 light with F59A
heavy: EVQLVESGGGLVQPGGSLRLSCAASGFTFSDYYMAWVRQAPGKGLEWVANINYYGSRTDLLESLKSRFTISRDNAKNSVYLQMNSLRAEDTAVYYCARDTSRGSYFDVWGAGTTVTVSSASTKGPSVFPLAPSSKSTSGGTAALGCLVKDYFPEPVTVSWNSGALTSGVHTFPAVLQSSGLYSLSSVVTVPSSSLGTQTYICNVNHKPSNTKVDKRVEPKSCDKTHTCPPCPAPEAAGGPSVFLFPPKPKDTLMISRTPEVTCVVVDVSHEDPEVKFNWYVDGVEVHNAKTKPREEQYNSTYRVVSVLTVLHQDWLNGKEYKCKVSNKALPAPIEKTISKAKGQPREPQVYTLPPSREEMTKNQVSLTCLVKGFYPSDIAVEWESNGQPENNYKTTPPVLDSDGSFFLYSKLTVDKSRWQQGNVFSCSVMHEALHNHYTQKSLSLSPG
Regarding B19, the Kd is 0.19 nM. This Kd and that of the molecule before are within 1.5-fold of each other.

B20: A24 (antibody, human IgG1, kappa, L234A L235A)
light: B7 light with E33G
heavy: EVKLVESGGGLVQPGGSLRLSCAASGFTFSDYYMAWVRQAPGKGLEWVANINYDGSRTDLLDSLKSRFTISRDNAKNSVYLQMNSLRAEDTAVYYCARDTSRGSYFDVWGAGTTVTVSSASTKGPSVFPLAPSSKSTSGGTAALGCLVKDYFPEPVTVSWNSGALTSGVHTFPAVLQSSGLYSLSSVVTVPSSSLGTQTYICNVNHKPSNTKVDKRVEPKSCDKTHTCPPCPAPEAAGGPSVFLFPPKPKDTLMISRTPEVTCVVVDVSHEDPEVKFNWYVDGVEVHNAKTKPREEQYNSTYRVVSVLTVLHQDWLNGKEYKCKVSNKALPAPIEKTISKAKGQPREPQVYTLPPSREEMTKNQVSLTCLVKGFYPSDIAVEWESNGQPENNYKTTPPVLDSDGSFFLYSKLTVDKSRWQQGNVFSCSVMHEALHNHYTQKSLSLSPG
B20 returned a Kd of 0.23 nM.

B21: A16 (antibody, human IgG1, kappa, L234A L235A)
light: B7 light with F59A
heavy: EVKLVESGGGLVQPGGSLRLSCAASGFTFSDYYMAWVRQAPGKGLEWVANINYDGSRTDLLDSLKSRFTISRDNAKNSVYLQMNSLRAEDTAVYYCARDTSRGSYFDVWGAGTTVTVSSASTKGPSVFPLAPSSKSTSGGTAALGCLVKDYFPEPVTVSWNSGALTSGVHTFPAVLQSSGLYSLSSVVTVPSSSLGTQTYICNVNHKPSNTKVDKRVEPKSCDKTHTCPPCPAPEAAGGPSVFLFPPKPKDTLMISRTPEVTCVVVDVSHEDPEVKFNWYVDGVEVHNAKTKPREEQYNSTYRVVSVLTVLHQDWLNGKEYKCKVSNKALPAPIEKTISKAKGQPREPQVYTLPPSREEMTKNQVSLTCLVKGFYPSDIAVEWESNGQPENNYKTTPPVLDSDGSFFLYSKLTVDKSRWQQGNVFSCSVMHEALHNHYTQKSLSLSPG
The molecule B21 registered a Kd of 0.24 nM.

B22: A44 (antibody, human IgG1, kappa, L234A L235A, V domains shown)
VH: B1 VH with E54Y, E62A
VL: B1 VL with F59A
B22: the Kd amounted to 0.16 nM.

B23: A45 (antibody, human IgG1, kappa, L234A L235A)
light: B7 light with K34N, F59A
heavy: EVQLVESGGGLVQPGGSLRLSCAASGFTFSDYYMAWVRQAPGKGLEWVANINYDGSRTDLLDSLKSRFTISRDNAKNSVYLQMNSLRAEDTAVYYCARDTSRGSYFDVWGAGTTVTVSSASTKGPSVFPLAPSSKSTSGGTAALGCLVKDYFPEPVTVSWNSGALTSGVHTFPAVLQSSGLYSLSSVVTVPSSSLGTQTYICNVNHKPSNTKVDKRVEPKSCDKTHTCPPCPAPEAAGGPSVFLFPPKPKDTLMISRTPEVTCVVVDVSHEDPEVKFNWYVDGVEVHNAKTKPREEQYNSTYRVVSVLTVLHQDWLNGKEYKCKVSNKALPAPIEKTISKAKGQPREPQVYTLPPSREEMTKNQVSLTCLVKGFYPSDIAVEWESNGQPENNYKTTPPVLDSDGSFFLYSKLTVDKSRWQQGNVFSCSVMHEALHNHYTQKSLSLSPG
In the case of B23, the binding result is on record as “no binding”.

B24: A6 (antibody, human IgG1, kappa, L234A L235A, V domains shown)
VH: B1 VH with E62D
VL: B1 VL with N34K
In turn, B24 registered a Kd of 0.32 nM.

B25: A15 (antibody, human IgG1, kappa, L234A L235A)
light: B7 light with F59A
heavy: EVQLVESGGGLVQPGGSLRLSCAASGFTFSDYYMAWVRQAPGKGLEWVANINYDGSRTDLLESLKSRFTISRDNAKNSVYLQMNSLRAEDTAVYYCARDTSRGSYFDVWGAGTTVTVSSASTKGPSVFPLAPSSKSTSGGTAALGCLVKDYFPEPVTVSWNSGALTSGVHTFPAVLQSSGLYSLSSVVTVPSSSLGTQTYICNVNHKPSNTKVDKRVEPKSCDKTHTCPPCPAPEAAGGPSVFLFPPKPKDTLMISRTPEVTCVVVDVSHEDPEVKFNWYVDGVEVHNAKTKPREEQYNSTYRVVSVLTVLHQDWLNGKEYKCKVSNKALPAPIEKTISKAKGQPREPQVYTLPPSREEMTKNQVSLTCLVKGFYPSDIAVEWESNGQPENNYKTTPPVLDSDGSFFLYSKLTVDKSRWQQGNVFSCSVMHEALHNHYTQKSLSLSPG
For B25, the Kd was 0.26 nM.

B26: A21 (antibody, human IgG1, kappa, L234A L235A)
light: B7 light with E33G
heavy: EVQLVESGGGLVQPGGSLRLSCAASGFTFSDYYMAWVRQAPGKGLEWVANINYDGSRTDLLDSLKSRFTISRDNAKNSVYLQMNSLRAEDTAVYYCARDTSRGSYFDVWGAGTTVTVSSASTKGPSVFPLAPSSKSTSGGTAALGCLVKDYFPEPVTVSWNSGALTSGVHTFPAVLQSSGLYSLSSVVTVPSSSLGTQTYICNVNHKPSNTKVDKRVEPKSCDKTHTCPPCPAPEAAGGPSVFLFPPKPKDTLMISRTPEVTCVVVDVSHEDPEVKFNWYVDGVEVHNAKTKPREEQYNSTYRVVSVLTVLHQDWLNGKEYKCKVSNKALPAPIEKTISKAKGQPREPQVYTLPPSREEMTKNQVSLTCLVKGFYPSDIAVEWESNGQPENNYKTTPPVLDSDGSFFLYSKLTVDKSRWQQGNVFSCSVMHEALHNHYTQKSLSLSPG
B26: binding was characterised by a dissociation constant (Kd) of 0.25 nM.

B27: A25 (antibody, human IgG1, kappa, L234A L235A, V domains shown)
VH: B1 VH
VL: B1 VL with E33G, N34K, F59A
Molecule B27 gave a Kd of 0.15 nM.

B28: A41 (antibody, human IgG1, kappa, L234A L235A, V domains shown)
VH: B1 VH
VL: B1 VL with F59A
Take B28: the Kd is 0.19 nM.

B29: A37 (antibody, human IgG1, kappa, L234A L235A, V domains shown)
VH: B1 VH with E54D, E62D
VL: B1 VL
On to B29, for which the binding result is reported as “no binding”.

B30: A22 (antibody, human IgG1, kappa, L234A L235A, V domains shown)
VH: B1 VH with E62D
VL: B1 VL with E33G, N34K
Molecule B30 displayed a Kd of 0.21 nM.

B31: A9 (antibody, human IgG1, kappa, L234A L235A)
light: B7 light with F59A
heavy: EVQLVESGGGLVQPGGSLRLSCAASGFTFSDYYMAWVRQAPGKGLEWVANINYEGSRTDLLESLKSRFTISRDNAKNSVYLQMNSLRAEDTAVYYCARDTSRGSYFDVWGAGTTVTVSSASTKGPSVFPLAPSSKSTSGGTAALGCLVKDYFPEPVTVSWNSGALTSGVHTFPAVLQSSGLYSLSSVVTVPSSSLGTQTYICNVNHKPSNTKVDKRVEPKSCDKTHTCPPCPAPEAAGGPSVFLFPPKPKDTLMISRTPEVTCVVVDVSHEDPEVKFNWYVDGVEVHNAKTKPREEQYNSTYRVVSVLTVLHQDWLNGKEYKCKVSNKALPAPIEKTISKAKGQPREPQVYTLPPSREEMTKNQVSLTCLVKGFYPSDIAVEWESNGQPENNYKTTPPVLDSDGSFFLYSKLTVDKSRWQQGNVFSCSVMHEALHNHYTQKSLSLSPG
In turn, B31 came in with an equilibrium dissociation constant (Kd) of 0.21 nM.

B32: A34 (antibody, human IgG1, kappa, L234A L235A, V domains shown)
VH: B1 VH with E54Y
VL: B1 VL
Consider B32, for which the binding result is “no binding”.

B33: A8 (antibody, human IgG1, kappa, L234A L235A)
light: B7 light
heavy: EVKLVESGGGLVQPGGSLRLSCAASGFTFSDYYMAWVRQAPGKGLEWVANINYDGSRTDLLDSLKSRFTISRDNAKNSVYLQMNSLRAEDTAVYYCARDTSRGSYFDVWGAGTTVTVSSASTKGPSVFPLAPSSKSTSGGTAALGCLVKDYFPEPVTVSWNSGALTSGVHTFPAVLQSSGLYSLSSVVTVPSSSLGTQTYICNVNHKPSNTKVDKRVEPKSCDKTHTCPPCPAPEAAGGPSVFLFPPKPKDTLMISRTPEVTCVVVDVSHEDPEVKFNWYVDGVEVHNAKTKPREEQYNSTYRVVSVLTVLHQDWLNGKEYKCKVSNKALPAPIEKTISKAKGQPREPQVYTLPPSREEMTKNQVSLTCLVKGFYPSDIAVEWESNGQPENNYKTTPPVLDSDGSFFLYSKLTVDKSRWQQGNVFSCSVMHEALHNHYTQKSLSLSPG
In turn, B33 displayed a Kd of 0.34 nM.

B34: A3 (antibody, human IgG1, kappa, L234A L235A, V domains shown)
VH: B1 VH with E62A
VL: B1 VL with N34K
On to B34, for which the Kd was 0.23 nM.

The values above are taken from patent publication US20250277020A1 (Boehringer Ingelheim, published 2025).
